Measurements reported in publication PMC9330529.

Assays:
[1] = biological target: SARS-CoV-2 spike protein WT (SARS-CoV-2 (WT), UniProt P0DTC2 14-1213); experiment: streptavidin bead fluorescence binding; details: protein: commercial, tags: His, chain copies: 3
SARS-CoV-1 spike protein = SARS-CoV-1 spike protein (SARS-CoV-1, UniProt P59594 14-1195)
SARS-CoV-2 S1 protein = SARS-CoV-2 S1 protein (SARS-CoV-2, UniProt P0DTC2 14-685)
SARS-CoV-2 S2 protein [2] = biological target: SARS-CoV-2 S2 protein (SARS-CoV-2 (WT), UniProt P0DTC2 686-1213); experiment: streptavidin bead fluorescence binding; details: protein: commercial, tags: His
PD-L1 = PD-L1 (UniProt Q9NZQ7 19-238); experiment: AuNP colorimetric assay; 1.5 M NaCl, 250 nM each; SELEX buffer: PBS, 1 mM MgCl2, 0.01% Tween, pH 7.4, room temperature; details: protein: commercial; hairpin
SARS-CoV-2 S2 protein [3] = biological target: SARS-CoV-2 S2 protein (SARS-CoV-2 (WT), UniProt P0DTC2 686-1213); experiment: streptavidin bead fluorescence binding; details: protein: commercial; tags: His

Chain of PD-L1 (Q9NZQ7 19-238): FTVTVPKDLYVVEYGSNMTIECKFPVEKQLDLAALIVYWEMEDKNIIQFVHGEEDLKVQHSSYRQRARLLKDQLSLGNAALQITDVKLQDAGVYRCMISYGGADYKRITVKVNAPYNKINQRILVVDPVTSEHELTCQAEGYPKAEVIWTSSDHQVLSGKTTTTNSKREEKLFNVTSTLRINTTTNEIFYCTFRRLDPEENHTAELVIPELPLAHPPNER

CGCAGCACCCAAGAACAAGGACTGCTTAGGATTGCGATAGGTTCGG (ssDNA) [S1B6C3] was tested, and the Kd [1] was 56.4 ± 14.2 nM.

In the case of AGGCGGGTTCCTAGACTTGTACTCAGCCT (ssDNA) [S2A2C1], the binding result (SARS-CoV-1 spike protein) is reported as “binds”, the binding result (SARS-CoV-2 S1 protein) is reported as “no binding” and the Kd ([1]; hairpin) is reported as 83.4 ± 8 nM. The Kd (SARS-CoV-2 S2 protein [2]; hairpin) was 35 ± 4.3 nM and the binding result (PD-L1) was “no binding”.

CAAGGAGCGACCAGAGGCGGGTTCCTAGACTTGTACTCAGCCT (ssDNA) [S2A2C3]: binds (SARS-CoV-2 S2 protein [2]; label: 6-FAM).

B1: S2A2 (ssDNA)
DNA: CAAGGAGCGACCAGAGGCGGGTTCCTAGACTTGTACTCAGCCTTTACAGCTATGCCCTGGCATCCTTCAGCCC
Binder B1 has a Kd (SARS-CoV-2 S2 protein [2]; label: 6-FAM) of 44.2 ± 6.6 nM.

B2: S2A1C1 (ssDNA)
DNA: CAAGGAGCGACCAGAGGGGCGGTTTATCAACAACTCGCTCTGTACACCACTCTTTG
B2: binds (SARS-CoV-2 S2 protein [3]).

B3: S2A1 (ssDNA)
DNA: CAAGGAGCGACCAGAGGGGCGGTTTATCAACAACTCGCTCTGTACACCACTCTTTGTTGGCATCCTTCAGCCC
Binder B3 has a Kd (SARS-CoV-2 S2 protein [3]) of 49.7 ± 3.2 nM.
